# B1: PLAGL1 (parent)
# chain: LELGSTEVLLDHLKAHAEEKPPSG
# Variants of: B1
# Experiment: protein stability index of a GFP-peptide fusion (GPS, HEK-293T) (PSI 1-6); higher = more stable
# Conditions: c terminus: a fixed tail appended
# 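Further: lentivirally expressed fusions sorted by FACS into six bins by GFP to DsRed ratio, PSI derived from sequencing read proportions per bin multiplied by bin number.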
row,Variant,protein stability index
1,LELGSTEVLLDHLKAHKEEKPPSG [A17K],4.11
2,LELGSTEVLLDHLKGHAEEKPPSG [A15G],4.29
3,LELGSTEVLLDHLKCHAEEKPPSG [A15C],4.04
4,LELGSTEVLLDHLKTHAEEKPPSG [A15T],5.14
5,LELGSTEVLLDHLKYHAEEKPPSG [A15Y],4.04
6,LELGSTEVLLDHLKQHAEEKPPSG [A15Q],4.63
7,LELGSTEVLLDHLKLHAEEKPPSG [A15L],4.83
8,LELGSTEVLLDHLKSHAEEKPPSG [A15S],4.44
9,LELGSTEVLLDHLKDHAEEKPPSG [A15D],4.8
10,LELGSTEVLLDHLKRHAEEKPPSG [A15R],3.89
11,LELGSTEVLLDHLKNHAEEKPPSG [A15N],4.73
12,LELGSTEVLLDHLKIHAEEKPPSG [A15I],4.24
13,LELGSTEVLLDHLKEHAEEKPPSG [A15E],5.05
14,LELGSTEVLLDHLKFHAEEKPPSG [A15F],4.18
15,LELGSTEVLLDHLKWHAEEKPPSG [A15W],3.54
16,LELGSTEVLLDHLKVHAEEKPPSG [A15V],4.72
17,LELGSTEVLLDHLKHHAEEKPPSG [A15H],4.37
18,LELGSTEVLLDHLKMHAEEKPPSG [A15M],4.48
19,LELGSTEVLLDHLKKHAEEKPPSG [A15K],3.87
20,LELGSTEVLLDHLKPHAEEKPPSG [A15P],5.41
21,LELGSTEVLLDHLKAHAYEKPPSG [E18Y],3.25
22,LELGSTEVLLDHLKAHAKEKPPSG [E18K],2.7
23,LELGSTEVLLDHLKAHAFEKPPSG [E18F],2.08
24,LELGSTEVLLDHLKAHAIEKPPSG [E18I],2.62

row,Variant,protein stability index
1,LELGSTEVLLDHLKAHADEKPPSG [E18D],4.55
2,LELGSTEVLLDHLKAHAMEKPPSG [E18M],2.61
3,LELGSTEVLLDHLKAHAWEKPPSG [E18W],2.07
4,LELGSTEVLLDHLKAHAVEKPPSG [E18V],2.71
5,LELGSTEVLLDHLKAHALEKPPSG [E18L],2.76
6,LELGSTEVLLDHLKAHAGEKPPSG [E18G],2.66
7,LELGSTEVLLDHLKAHAAEKPPSG [E18A],3.45
8,LELGSTEVLLDHLKAHAPEKPPSG [E18P],3.28
9,LELGSTEVLLDHLKAHATEKPPSG [E18T],3.59
10,LELGSTEVLLDHLKAHAHEKPPSG [E18H],3.27
11,LELGSTEVLLDHLKAHACEKPPSG [E18C],3.39
12,LELGSTEVLLDHLKAHAREKPPSG [E18R],2.15
13,LELGSTEVLLDHLKAHANEKPPSG [E18N],3.53
14,LELGSTEVLLDHLKAHASEKPPSG [E18S],3.87
15,LELGSTEVLLDHLKAHAQEKPPSG [E18Q],3.94
16,LELGSTEVLLDHLKAHAEEKPPSH [G24H],4.47
17,LELGSTEVLLDHLKAHAEEKPPSK [G24K],4.34
18,LELGSTEVLLDHLKAHAEEKPPSP [G24P],4.9
19,LELGSTEVLLDHLKAHAEEKPPSQ [G24Q],4.63
20,LELGSTEVLLDHLKAHAEEKPPSF [G24F],3.21
21,LELGSTEVLLDHLKAHAEEKPPSL [G24L],3.51
22,LELGSTEVLLDHLKAHAEEKPPSD [G24D],4.91
23,LELGSTEVLLDHLKAHAEEKPPSN [G24N],4.54
24,LELGSTEVLLDHLKAHAEEKPPSM [G24M],3.61

row,Variant,protein stability index
1,LELGSTEVLLDHLKAHAEEKPPSC [G24C],3.97
2,LELGSTEVLLDHLKAHAEEKPPSI [G24I],4.07
3,LELGSTEVLLDHLKAHAEEKPPSE [G24E],4.68
4,LELGSTEVLLDHLKAHAEEKPPSA [G24A],4.66
5,LELGSTEVLLDHLKAHAEEKHPSG [P21H],4.57
6,LELGSTEVLLDHLKAHAEEKWPSG [P21W],3.53
7,LELGSTEVLLDHLKAHAEEKTPSG [P21T],4.56
8,LELGSTEVLLDHLKAHAEEKYPSG [P21Y],3.39
9,LELGSTEVLLDHLKAHAEEKIPSG [P21I],4.22
10,LELGSTEVLLDHLKAHAEEKLPSG [P21L],3.6
11,LELGSTEVLLDHLKAHAEEKRPSG [P21R],4.47
12,LELGSTEVLLDHLKAHAEEKQPSG [P21Q],4.84
13,LELGSTEVLLDHLKAHAEEKKPSG [P21K],5.04
14,LELGSTEVLLDHLKAHAEEKVPSG [P21V],4.41
15,LELGSTEVLLDHLKAHAEEKSPSG [P21S],4.53
16,LELGSTEVLLDHLKAHAEEKCPSG [P21C],3.55
17,LELGSTEVLLDHLKAHAEEKNPSG [P21N],4.85
18,LELGSTEVLLDHLKAHAEEKFPSG [P21F],3.72
19,LELGSTEVLLDHLKAHAEEKDPSG [P21D],4.92
20,LELGSTEVLLDHLKAHAEEKAPSG [P21A],4.8
21,LELGSTEVLLDHLKAHAEEKEPSG [P21E],5.38
22,LELGSTEVLLDHLKAHAEEKMPSG [P21M],4.4
23,LELGSTEVLLDHLKAHAEEKGPSG [P21G],4.45
24,LELGSTEVLLDHLWAHAEEKPPSG [K14W],4.1

row,Variant,protein stability index
1,LELGSTEVLLDHLYAHAEEKPPSG [K14Y],4.14
2,LELGSTEVLLDHLTAHAEEKPPSG [K14T],5.1
3,LELGSTEVLLDHLVAHAEEKPPSG [K14V],4.63
4,LELGSTEVLLDHLKAAAEEKPPSG [H16A],4.24
5,LELGSTEVLLDHLKAKAEEKPPSG [H16K],5.08
6,LELGSTEVLLDHLKAGAEEKPPSG [H16G],3.88
7,LELGSTEVLLDHLKAMAEEKPPSG [H16M],3.29
8,LELGSTEVLLDHLKAPAEEKPPSG [H16P],5.07
9,LELGSTEVLLDHLKANAEEKPPSG [H16N],5.11
10,LELGSTEVLLDHLKAYAEEKPPSG [H16Y],3.33
11,LELGSTEVLLDHLKALAEEKPPSG [H16L],4.08
12,LELGSTEVLLDHLKAEAEEKPPSG [H16E],4.6
13,LELGSTEVLLDHLKAIAEEKPPSG [H16I],3.93
14,LELGSTEVLLDHLKATAEEKPPSG [H16T],4.29
15,LELGSTEVLLDHLKADAEEKPPSG [H16D],4.25
16,LELGSTEVLLDHLKAVAEEKPPSG [H16V],4.05
17,LELGSTEVLLDHLKASAEEKPPSG [H16S],4.58
18,LELGSTEVLLDHLKAQAEEKPPSG [H16Q],4.53
19,LELGSTEVLLDHLKACAEEKPPSG [H16C],4.2
20,LELGSTEVLLDHLKARAEEKPPSG [H16R],4.28
21,LELGSTEVLLDHLKAWAEEKPPSG [H16W],3.02
22,LELGSTEVLLDHLKAFAEEKPPSG [H16F],3.42
